In PMC7810697, “Sarcolipin alters SERCA1a interdomain communication by impairing binding of both calcium and ATP” (Scientific Reports, 2021):
Ends that are not written are not given here. * marks the point of attachment. Palmitoyl = CCCCCCCCCCCCCCCC(=O)*

Tests used:
[1] = biological target: T1, recombinant SERCA1a (recS1a) (Oryctolagus cuniculus, UniProt P04191); experiment: Turnover-dependent dephosphorylation kinetics; type: biochemical, rabbit (expressed in S. cerevisiae); conditions: for effect on rate of dephosphorylation: after addition of non-radioactive ATP
T1 construct: BAD (biotin acceptor domain) (C, cleaved yes); made in house; host or cells: Saccharomyces cerevisiae
Protocol: (§1) Transient formation of the phosphoenzyme intermediate was measured after incubation with [γ^32P]ATP followed by acid quenching, and filtration. For most experiments, 50 µL of enzyme at 10 µg/mL in a buffer containing 50 mM Tes-Tris pH7.5, 1 mM KCl, 5 mM MgCl2, 20% glycerol (w/w) and 0.5 mg/mL DDM, supplemented or not with SLN, was stored on ice. Concentrations of EGTA and calcium are specified in figure legends in order to reach the appropriate [Ca^2+]free and therefore the desired starting state for the ATPase. For kinetics of phosphorylation, we initiate reaction by addition of 2 µM [γ^32P]ATP (5 mCi/µmole), and calcium at 100 µM when specified. Reaction was quenched by addition of 2 mL of cold quenching medium (500 mM TCA + 30 mM H3P0_4) under vigorous mixing, and immediately stored on ice for 20–30 min to improve precipitation, a period of time critical for retention of the precipitate on the filter in presence of detergent. This was followed by filtration on GS filters (Millipore, Saint Quentin-Fallavier, France) and careful rinsing of the filters with diluted quenching medium (50 mM TCA + 3 mM H3P0_4). The amount of radioactivity bound to the filter was estimated by liquid scintillation counting (Perkin Elmer TriCarb Counter). When starting from a calcium-deprived state (Fig. 4C,D), EGTA was added only one minute before starting phosphorylation to limit irreversible inactivation of the solubilized ATPase, although the presence of glycerol helps in protecting the enzyme from irreversible inactivation. For dephosphorylation kinetics, 1 mM “cold” Mg.ATP was added after a 30 s period of phosphorylation. For Ca^2+-dependency, we adjust the concentration of free calcium according to the Ca.EGTA constant as mentioned above, before triggering phosphorylation. […] Phosphorylations were done at 0 °C especially for inhibition by vanadate to prevent dissociation of vanadate and limit irreversible inactivation in absence of calcium.

[2] = biological target: T1, recombinant SERCA1a (recS1a); experiment: Effect of SLN:SERCA1a stoichiometry on phosphorylated intermediate, recS1a; type: biochemical, rabbit (expressed in S. cerevisiae); conditions: for EPmax (stoichiometry series), recS1a / maximum decrease of the EP level, recS1a (discussion): Fig. 4G; for SLN:SERCA1a ratio for half-inhibition, recS1a (Fig. 4H): phosphoenzyme after 20 s, dose-response with variable slope; for SLN:SERCA1a ratio for half-inhibition, recS1a (Fig. 4H) / amplitude of the inhibition of phosphoenzyme level, recS1a: mean of three independent experiments; for amplitude of the inhibition of phosphoenzyme level, recS1a: recS1a without SLN = 100%
Protocol: as §1

[3] = biological target: T2, DDM-solubilized SR (native SERCA1a) (Oryctolagus cuniculus, UniProt P04191); experiment: Effect of SLN:SERCA1a stoichiometry on phosphorylated intermediate, DDM-solubilized SR; type: biochemical, rabbit; conditions: for EPmax (stoichiometry series), DDM-solubilized SR / decrease of the EP level, DDM-solubilized native SERCA1a (discussion): Fig. 4G; for amplitude of the inhibition of phosphoenzyme level, DDM-solubilized SR: SR without added SLN = 100%; for amplitude of the inhibition of phosphoenzyme level, DDM-solubilized SR / SLN:SERCA1a ratio for half-inhibition, DDM-solubilized SR (Fig. 4H): mean of three independent experiments; for SLN:SERCA1a ratio for half-inhibition, DDM-solubilized SR (Fig. 4H): phosphoenzyme after 20 s, p = 0.047 pSLN vs SLN
T2 construct: DDM-solubilized native SERCA1a purification; from tissue; host or cells: rabbit skeletal muscle sarcoplasmic reticulum
Protocol: Transient formation of the phosphoenzyme intermediate was measured after incubation with [γ^32P]ATP followed by acid quenching, and filtration. For most experiments, 50 µL of enzyme at 10 µg/mL in a buffer containing 50 mM Tes-Tris pH7.5, 1 mM KCl, 5 mM MgCl2, 20% glycerol (w/w) and 0.5 mg/mL DDM, supplemented or not with SLN, was stored on ice. Concentrations of EGTA and calcium are specified in figure legends in order to reach the appropriate [Ca^2+]free and therefore the desired starting state for the ATPase. For kinetics of phosphorylation, we initiate reaction by addition of 2 µM [γ^32P]ATP (5 mCi/µmole), and calcium at 100 µM when specified. Reaction was quenched by addition of 2 mL of cold quenching medium (500 mM TCA + 30 mM H3P0_4) under vigorous mixing, and immediately stored on ice for 20–30 min to improve precipitation, a period of time critical for retention of the precipitate on the filter in presence of detergent. This was followed by filtration on GS filters (Millipore, Saint Quentin-Fallavier, France) and careful rinsing of the filters with diluted quenching medium (50 mM TCA + 3 mM H3P0_4). The amount of radioactivity bound to the filter was estimated by liquid scintillation counting (Perkin Elmer TriCarb Counter). When starting from a calcium-deprived state (Fig. 4C,D), EGTA was added only one minute before starting phosphorylation to limit irreversible inactivation of the solubilized ATPase, although the presence of glycerol helps in protecting the enzyme from irreversible inactivation. For dephosphorylation kinetics, 1 mM “cold” Mg.ATP was added after a 30 s period of phosphorylation. For Ca^2+-dependency, we adjust the concentration of free calcium according to the Ca.EGTA constant as mentioned above, before triggering phosphorylation. […] Phosphorylations were done at 0 °C especially for inhibition by vanadate to prevent dissociation of vanadate and limit irreversible inactivation in absence of calcium. […]
resuspended in a large volume of pure water and lyophilized to evaporate most of the TFA. The rinsed powder was then suspended in presence of 10 mM HCl to exchange the anionic residual TFA that may interact with the positive charges of the peptide for chloride. This suspension was lyophilized again.
Three additional cycles of – dissolving in pure water / lyophilisation – will allow to eliminate traces of TFA and to get back to a pH compatible with functional tests. For final solubilisation of SLN in detergent, powder was then dissolved in 50% TFE and an amount of detergent to reach a 100:1 mole:mole detergent:SLN ratio. Here, we used C12E8 as it is fully compatible with functional characterization of SERCA1a 23. This suspension was then lyophilized again to evaporate TFE.
Sarcolipins (Palm-SLN or SLN) were finally resuspended at 0.8 mg/mL (about 200 µM) in a 10 mM potassium phosphate buffer pH 7.4, in the presence of 2.5 mg/mL C12E8. […]
DDM-solubilized native SERCA1a purification
SR vesicles were suspended at a concentration of 1 mg/mL in a buffer containing 50 mM MOPS-Tris pH7, 100 mM KCl, 5 mM MgCl2, 0.1 mM CaCl2, 20 % glycerol (v/v) and 10 mg/mL DDM (detergent:protein ratio 10:1 w/w), and incubated for 10 minutes at 20°C. Solubilized material was recovered after centrifugation for 10 minutes at 120,000 x g on a TLA100.3 rotor (Beckman Coulter TL100 ultracentrifuge). Supernatant was injected on a size exclusion chromatography column (Superdex 200 10/300 GL on an Akta Purifier FPLC system, GE Healthcare) equilibrated with the same buffer but now containing only 0.5 mg/mL DDM. Chromatography was performed at 4°C and at a flow rate of 0.5 mL/min. Fractions corresponding to the main peak were collected, pooled and stored at - 80°C. For further details, see 32.
Steady-state ATPase activity measurements
Measurements were performed using classical enzyme coupled assay. We measured the rate of NADH oxidation in the presence of 0.1 mg/mL lactate deshydrogenase, 0.05 mg/mL pyruvate kinase, 1 mM […]

T1 sequence (P04191 1-994 isoform P04191-2): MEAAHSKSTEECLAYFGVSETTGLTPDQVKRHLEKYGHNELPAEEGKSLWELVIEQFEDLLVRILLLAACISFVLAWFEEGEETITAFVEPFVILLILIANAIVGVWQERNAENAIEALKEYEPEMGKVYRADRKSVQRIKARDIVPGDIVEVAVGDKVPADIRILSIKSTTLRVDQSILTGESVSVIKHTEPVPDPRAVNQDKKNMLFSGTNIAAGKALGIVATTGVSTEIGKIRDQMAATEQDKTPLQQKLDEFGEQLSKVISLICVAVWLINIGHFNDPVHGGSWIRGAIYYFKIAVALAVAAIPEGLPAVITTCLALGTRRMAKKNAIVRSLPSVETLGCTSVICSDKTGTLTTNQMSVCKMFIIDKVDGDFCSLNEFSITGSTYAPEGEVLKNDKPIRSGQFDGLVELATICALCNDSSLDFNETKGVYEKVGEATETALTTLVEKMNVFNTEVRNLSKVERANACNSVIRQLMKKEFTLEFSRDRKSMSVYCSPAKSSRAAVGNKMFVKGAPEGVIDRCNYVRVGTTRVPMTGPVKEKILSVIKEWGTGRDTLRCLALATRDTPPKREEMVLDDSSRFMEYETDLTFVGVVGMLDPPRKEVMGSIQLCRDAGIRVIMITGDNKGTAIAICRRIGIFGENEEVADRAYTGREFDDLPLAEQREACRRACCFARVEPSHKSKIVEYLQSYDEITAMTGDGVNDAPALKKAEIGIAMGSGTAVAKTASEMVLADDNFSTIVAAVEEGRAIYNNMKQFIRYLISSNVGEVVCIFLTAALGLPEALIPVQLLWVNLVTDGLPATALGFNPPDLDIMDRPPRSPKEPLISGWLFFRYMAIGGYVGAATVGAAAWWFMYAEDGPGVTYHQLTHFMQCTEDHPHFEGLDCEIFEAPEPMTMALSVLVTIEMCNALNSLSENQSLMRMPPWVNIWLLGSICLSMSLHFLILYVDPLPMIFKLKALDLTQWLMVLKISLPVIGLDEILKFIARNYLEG
T2 sequence (P04191 1-994 isoform P04191-2): as above

Substance	effect on rate of dephosphorylation [1]	EPmax (stoichiometry series), recS1a [2]	maximum decrease of the EP level, recS1a (discussion) [2]	SLN:SERCA1a ratio for half-inhibition, recS1a (Fig. 4H) [2]	amplitude of the inhibition of phosphoenzyme level, recS1a [2]	EPmax (stoichiometry series), DDM-solubilized SR [3]	decrease of the EP level, DDM-solubilized native SERCA1a (discussion) [3]	amplitude of the inhibition of phosphoenzyme level, DDM-solubilized SR [3]	SLN:SERCA1a ratio for half-inhibition, DDM-solubilized SR (Fig. 4H) [3]	t1/2 of dephosphorylation ([1]; pSLN:SERCA1a 10:1 mol:mol, 1 mM cold Mg.ATP after 30 s phosphorylation, three replicates from two independent experiments, recS1a alone 2.4 +/- 0.4, p=0.064)
SLN: chemically synthesized non-palmitoylated rabbit sarcolipin; in cited literature results sarcolipin in general (MERSTRELCLNFTVVLITVILIWLLVRSYQY; UniProt P42532 1-31, looked up)	No effect	2.38 ± 0.05 nmoles EP/mg ATPase	about 30%	4.7 ± 0.2 mol SLN added per mole of SERCA1a	28.6 ± 0.5%	3.94 ± 0.12 nmoles EP/mg ATPase	about 20%	19.0 ± 0.7%	3.1 ± 0.3 mol SLN added per mole of SERCA1a	–
pSLN: chemically synthesized S-palmitoylated rabbit sarcolipin, 31-residue single-spanning membrane peptide, palmitoylated on Cys9 (MERSTRELC(Palmitoyl)LNFTVVLITVILIWLLVRSYQY; UniProt P42532 1-31, looked up)	No effect	2.37 ± 0.05 nmoles EP/mg ATPase	about 30%	5.1 ± 0.3 mol SLN added per mole of SERCA1a	31.2 ± 0.8%	4.00 ± 0.14 nmoles EP/mg ATPase	about 30%	28.1 ± 1.2%	5.9 ± 0.6 mol SLN added per mole of SERCA1a	2.8 ± 0.6 s
